Results from patent publication US20130108613.

Key:
[1] = molecular target: oligomeric synthetic human Aβ1-42 preparation
[2] = molecular target: monomeric synthetic human Aβ1-42 peptide

B1: recombinant NIa (nuclear inclusion a) protease of Turnip mosaic virus (TuMV), purified from E. coli (protein)
chain: SNSMFRGLRDYNPISNNICHLTNVSDGASNSLYGVGFGPLILTNRHLFERNNGELVIKSRHGEFVIKNTTQLHLLPIPDRDLLLIRLPKDIPPFPQKLGFRQPEKGERICMVGSNFQTKSITSVVSETSTIMPVENSQFWKHWISTKDGQCGSPMVSTKDGKILGLHSLANFQNSINYFAAFPDDFAEKYLHTIEAHEWVKHWKYNTSAISWGSLNIQASQPSGLFKVSKLISDLDSTAVYAQ
B1 was tested, and the “oligomeric Aβ level with NIa pre-incubated with NEM, Western blot (6E10)” value [1] was “This NIa-mediated reduction of oligomeric Aβ was significantly blocked by NEM”, the “oligomeric Aβ remaining after 3 hrs with NIa, densitometry of Western blot (6E10), relative to Aβ only” value [1] was “only 19% of oligomeric Aβ remained” and the “reduction of monomeric Aβ level, densitometry of Western blot (6E10), 3 hrs at 25 °C, without NEM” value [2] was “NIa reduced Aβ levels by 64% in the absence of NEM”.
